Assay results taken from article PMC6338834.

T1: Mcm10 (Saccharomyces cerevisiae, UniProt P32354 1-571)
T1 sequence: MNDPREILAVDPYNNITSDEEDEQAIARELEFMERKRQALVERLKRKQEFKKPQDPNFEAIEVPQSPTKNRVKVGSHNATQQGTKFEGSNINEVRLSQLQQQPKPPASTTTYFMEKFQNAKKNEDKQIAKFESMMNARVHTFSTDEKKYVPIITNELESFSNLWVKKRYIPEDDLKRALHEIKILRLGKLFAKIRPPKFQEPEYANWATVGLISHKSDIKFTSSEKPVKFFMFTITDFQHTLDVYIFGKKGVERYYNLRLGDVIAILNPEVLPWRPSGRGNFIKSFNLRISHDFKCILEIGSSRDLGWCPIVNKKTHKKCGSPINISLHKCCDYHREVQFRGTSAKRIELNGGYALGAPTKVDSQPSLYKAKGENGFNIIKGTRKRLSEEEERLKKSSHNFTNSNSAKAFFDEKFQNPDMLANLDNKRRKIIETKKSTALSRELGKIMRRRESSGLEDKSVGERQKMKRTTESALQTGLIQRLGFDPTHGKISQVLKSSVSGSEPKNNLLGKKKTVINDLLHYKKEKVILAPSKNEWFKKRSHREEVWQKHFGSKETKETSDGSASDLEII


Assays:
RPA = RPA (Saccharomyces cerevisiae, UniProt P22336;P26754;P26755 1-621;1-273;1-122); experiment: EMSA
Mcm10 = molecular target: T1, Mcm10; experiment: fluorescence anisotropy

Sequence of RPA (P22336 whole entry, chain 1 of 3): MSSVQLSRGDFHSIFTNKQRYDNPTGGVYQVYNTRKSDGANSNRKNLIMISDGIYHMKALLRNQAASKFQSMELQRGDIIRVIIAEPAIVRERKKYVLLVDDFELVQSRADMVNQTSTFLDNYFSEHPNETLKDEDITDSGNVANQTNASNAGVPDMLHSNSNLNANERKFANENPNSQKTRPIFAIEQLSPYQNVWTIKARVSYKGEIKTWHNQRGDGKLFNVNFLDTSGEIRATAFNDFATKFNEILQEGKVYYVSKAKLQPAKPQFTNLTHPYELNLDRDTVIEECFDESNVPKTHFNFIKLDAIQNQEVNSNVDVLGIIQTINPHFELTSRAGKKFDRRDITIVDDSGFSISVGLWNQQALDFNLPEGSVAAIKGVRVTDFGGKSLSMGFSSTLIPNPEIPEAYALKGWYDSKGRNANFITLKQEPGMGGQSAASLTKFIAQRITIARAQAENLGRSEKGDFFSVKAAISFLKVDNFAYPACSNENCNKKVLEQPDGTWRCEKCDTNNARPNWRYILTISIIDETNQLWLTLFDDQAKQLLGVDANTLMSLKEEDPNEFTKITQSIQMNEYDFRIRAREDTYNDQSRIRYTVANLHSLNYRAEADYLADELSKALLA
Sequence of RPA (P26754 whole entry, chain 2 of 3): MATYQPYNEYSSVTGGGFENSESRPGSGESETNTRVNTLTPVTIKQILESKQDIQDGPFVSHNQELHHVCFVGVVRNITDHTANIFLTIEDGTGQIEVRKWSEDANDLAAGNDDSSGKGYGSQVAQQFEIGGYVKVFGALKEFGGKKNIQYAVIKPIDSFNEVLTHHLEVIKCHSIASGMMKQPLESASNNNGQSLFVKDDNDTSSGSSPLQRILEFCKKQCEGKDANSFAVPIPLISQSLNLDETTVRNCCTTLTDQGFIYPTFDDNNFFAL
Sequence of RPA (P26755 whole entry, chain 3 of 3): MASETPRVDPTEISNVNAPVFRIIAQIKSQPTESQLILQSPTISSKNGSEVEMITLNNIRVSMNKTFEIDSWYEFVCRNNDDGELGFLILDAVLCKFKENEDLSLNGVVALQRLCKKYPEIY

Row | Binder | binding result (RPA) | Kd (Mcm10)
1 | 5' flap lagging strand oligo (ssDNA, last 5 linkages at 3' end thiodiester (phosphorothioate)) DNA: TTTTTTTTTTTTTTTTTTTTTTTTTTTTTTTTTTTTTTTTTTTTTTTTTGACGCTGCCGAATTCTGGCTTGCTAGGACATTACAGGATCGTTCGGTCTC | binds | –
2 | 3' FITC 60mer ssDNA (ssDNA) DNA: TTTTTTTTTTTTTTTTTTTTTTTTTTTTTTGGTGAGGGTTGGGAAGTGGAAGGATGGGCT | – | 50 nM
